From a protein production outcome set (Wang et al. 2014)

Test: label from the status in PepcDB records

Sequence | protein production
MADMTKQAFMRLSNPKFIMLFLILWVSLLLSSNHTLSQLADYIFFTFLGTLGAIFANSTGAGGGVVFIPMFTQLNFTEQQSIATSFAIQCFGMTAGAVTWWHHYRTEKTDLRLWQGFKRIICVTTIASIIGLNAVFFYQVNSPATLHTSFSWFSLLLGFFIVLTIYLLQPHRERSQLYYVDYIFLILIGLFGGAVTAWLSVGVGELLVIYLLLRHFDISMAVAAAVIVSAISVWTAIAQVNSDVYWQVVLFAGPGAVLGGIFAKTLVTHLSAIKLKLFFACWLLLSGVVGLI | failed
MADQAPRPAREFVVEADGGSRGNPGPAGYGAVVLDPVTGEALVEAAEYLGVVTNNVAEYRGLLAGLRAAAELDPDATVHVRMDSKLVVEQMSGRWKIKHPDMKPLAAEAARVFPPGRVTYEWIPRASNKHADRLANEAMDAGARGEAWSPSDSTAELDAAAADRAAPAGRTAGSRRTGAASAVAPAGTEGGDGGEPAPDGGGAAAGEPLARAGRDRVDAASLGAGTRAATSTGASATGTSGTGASATGTSGTGASATGAPGLGVAAETSGEADVRAAKVVASPGWGPPDMGAPATFVLLRHGETPLTPQKRFSGSGGSDPSLSPVGREQAERVAASLARRGTIEAVVASPLARTRETAGIVAARLGLEVAIEEGLRETDFGAWEGLTFGEVRERHPADLDAWLASPDAEPTGGGESFAATGTRIAATRDRLVAAYAGRTVLLVSHVTPIKTFVRLALGAPPESLFRMELSAASLSAVAYYADGGASVRLFNETSHLR | failed
MADQSFAVLGLGKFGMALTVALLKAEQDVLVIDSNEEVINDVAHLVTHAVIADATDEDELRDLDIGSFDHVFVTMGENVEGSIITTMLAKKLGAPDVTTRANNHNHRLVLEKIGADHVIEPEQDMARQLIFRQLHPNVVNYFNLSKNISLIEVSVENSRFFNQSLGDLDFRKNYDVSVIGIVHDGKLNQVPLATDVIAPHDQITLIGSNKAVQRLDDILREEK | failed
MADRLIVRGAREHNLKNVSLDLPRDSLIVFTGLSGSGKSSLAFDTIFAEGQRRYVESLSSYARQFLGQMDKPDVDFIEGLSPAVSIDQKSTSRNPRSTVGTITEVYDYLRLLFARIGKPHCPECGRPISRQSPQAIVDKVLELPEGSRFQVLSPLVRERKGEFVDLFADLQTKGYSRARVDGETVQLSNPPTLKKQEKHTIEVVVDRLTVKDSAKRRLTDSVETALGLSGGMVVLDFVDLPEDDPERERMYSEHLYCPYDDLSFEELEPRSFSFNSPFGACPDCSGIGTRMEVDAELIVPDEDKSLDEGAIHPWSHGHTKDYFGRLIGALADALGFRTDIPFAGLPLRARKALLYGHKTQVEVRYRNRYGRERRYTTAFEGAIPFVKRRHSEAESDASRERFEGYMREVPCPTCQGTRLKPLVLAVTVMGKSIAEVSAMSISDCADFLGELTLNARDKKIAERVLKEVNERLRFLVDVGLDYLSLNRAAGTLSGGEAQRIRLATQIGSGLVGVLYVLDEPSIGLHQRDNHRLIETLVRLRDMGNTLIVVEHDEDTIKVADWIVDIGPGAGEHGGKVVHSGSVKELLDNAESQTGLYLSGRKAIPLPDIRRPQDPSRRLTVHGARENNLQDIDVSFPLGVFTAVTGVSGSGKSTLVNDILYTHLARELNGARNVPGRHTRVDGDDLVDKVVHVDQSPIGRTPRSNPATYTGVFDHIRKLFAETTEAKVRGYLPGRFSFNVKGGRCENCAGDGTIKIEMNFLPDVYVPCEVCHGARYNRETLEVHYKGKSIADVLNMPIEEATDFFEAVPAISRHMKTLKDVGLGYVRLGQSATTLSGGEAQRVKLASELQRRSTGRTVYVLDEPTTGLHFEDISKLLTVLGGLVDKGNTVIVIEHNLDVIKTADWVVDMGPEGGAGGGLVVAEGTPEQVAGVPASHTGKFLRDVLGADRVSDAAPVTRPRKAAKTVAAKAAAKKTATKTVTGTAAKKATATRTAKTAVKKAAKPAAKKTTRTSKA | failed
MADSENMYILSEDEDVCPTCLEEYTSENPKIVTKCSHHFHLSCIYEWMERSENCPVCGKVMEFNETP | failed
MADSRPRLVTGSPEGYPGHVDGRLRDARLNNPKGLTVDDRGNIYVADTVNNAIRKISEAGVTTIAGGKMVRGGGHVDGPSEDAKFSNDFDVVYLGSSCSLLVIDRGNQAIREIQLHFDDCADQYGSGFPLGIAVLVAAVFFGYMLALLQRRLSSIVSYHTDQEVFEAVPDQDPIKPVRPPLILTGDEQEKQEESFLGTLQIFISNAWVFSVELFSGMFPGLRKKQTVGLNFNHQETKHSAFSTTSWPIQESFVIHNKDEPPPVESRNATPGKIYPFMSKDATEKMQQLRQSRALYRSLDAEFLQEQQQEKHQQYHHRHHSTIPYTLYEQSSEKTNEIVFGPGQEQDQMNTHQNIHHRAHQFVSYPYGYYS | failed
MADVATKHPMEDEVKKTEASSLVGKLETDVEIKASADKFHHMFAGKPHHVSKASPGNIQGCDLHEGDWGTVGSIVFWNYVHDGEAKVAKERIEAVEPDKNLITFRVIEGDLMKEYKSFLLTIQVTPKPGGPGSIVHWHLEYEKISEEVAHPETLLQFCVEVSKEIDEHLLAEEEEVKTPETPSLVGKLETDVEIKASAEKFHHMFAGKPHHVSKASPGNIQGCDLHEGDWGQVGSIVFWNYVHDREAKVAKERIEAVEPNKNLITFRVIDGDLMKEYKSFLLTIQVTPKLGGPGSIVHWHLEYEKISEEVAHPETLLQFCVEVSKEIDEHLLAEE | failed
MADVENQQDSSFPVKRKSDLFCQDQDNVTNKAQKLNPSLNSADSESKDGETNGSGQIENLNSSTEETIGAESSVLSEKAAEEVESGVIGDVGAEEEQEDEEDEEEDDEEEEEEEEVVDRKGKGISREDKGKGKMIEVEESDDEDDSDDDEDDEGFDEDDESDFSDDPLAEVDLDNILPSRTRRRSSQPGVFIPNEFSNRHVNDEDDESSDSDA | failed
MAEASSLVGKLETEVEIKASAKKFHHMFTERPHHVSKATPDKIHGYGKLTVGKNKIEAVDPEKNLITFKVLEGDLMNEYKSFAFTLQVTPKQGESGSIAHWHLEYEKISEEVAHPETLLQFCVEISKEIDEHLLAEE | failed
MAEDFSVVVLASDLGIDARPFLTRSDDVDEQENWHDCPQYLGDEDFSDLDLLQFFTLQGLDRSGNRIFRIVGKYFPARVVSAERLKKYISQKISNQCPEGPLCLVYMHSTVQKDDNSPGITILRWIYEDLPSDIKDRLQLVYFIHPGLRSRLVIATLGRLLLSGGLYWKIKYVSRLQYLWEDIKKGEVEIPDFVKNHDNVLEHRPLTDYGIEPDPFQLSEVQSSSFSLNRYENRWVS | failed
MAEEQEIVDSLSAEVNPDQKVDMEVETATPKAETGDEKREREETEEEENGGESKKQKVGEEEKSGPVKLGPKEFVTSVAMFDYFVKFLHFWPTDLDVNKYEHMVLLDLIKKGHSEPEKKIGGGIKTFQVRTHPMWKSRCFFLVREDDTADDFSFRKCVDQILPLPENMKTPGANGNGHGGGRGGGGGRRGGRGGGRGGRFRR | failed
MAEERHHTEHIPQWKKDEIENIKELIQSHKVFGMVRIEGILATKIQKIRRDLKDVAVLKVSRNTLTERALNQLGESIPEMTRYLDNQTALIFTNESPFKLYKLLEQTKTPSPIKAGAIAPEDIIVQKGPTSFPPGPILGELQSAGIPASIDAGKVAVKETKVVCKAGEAVPQKLATMLSKLEIYPLIVGLDLRAAYDDGTIYEPELLAVDESKYFSDIIRAAQNAFNLSVNTAYPTGATIGTLLAKAYAESKSLGVNAVILEPGVMDSLLAKAHVQMTSVASEAAEKDANAVDDDLREVLGAAASAAAAATVAAPAAEEEKKEEEPEEEEEDHAEEDGMAGLGALFGLEHHHHHH | not failed
MAEERRIDWSSLWKKEDWWAFWLGMLLFVLCLATAYGADIMGWVVKSSTWVDVSKAMGPTSKNFAYLGPIGSFVVSWLVLLILTTIGAVAMGWKGGKFAAAFTVIFILTWICWVIGHNAYIAATDPAKAGVPWSLRMTGEAGYIFALILGLIIGNFFKGFANWLKEAAKPEWFIKTAIVLLGAVVGIKAPTIPPEILYNYLFRGLCAIVEAYLIYWALVYWVARRYFGFSREWAAPLASGISICGVSAAIATGGAIRARPVVPVMVASLVIVFAVVELLFLPFLAATFLQHQPLVAGAWMGLAVKTDGAATASVKWLKL | failed
MAEGGGCRERPDAETQKSELGPLMRTTLQRGAQWYLIDSRWFKQWKKYVGFDSWDMYNVGEHNLFPGPIDNSGLFSDPESQTLKEHLIDELDYVLVPTEAWNKLLNWYGCVEGQQPIVRKVVEHGLFVKHCKVEVYLLELKLCENSDPTNVLSCHFSKADTIATIEKEMRKLFNIPAERETRLWNKYMSNTYEQLSKLDNTVQDAGLYQGQVLVIEPQNEDGTWPRQTLQSKSSTAPSRNFTT | failed
